# Experimental data reported in patent US20230192785A1, “JNK3 INHIBITORY PEPTIDES” (UNIVERSITA' DEGLI STUDI DI MILANO, priority 2020, published 2023).
# Ends that are not written are not given here.
# Assays:
# JNK3 = JNK3 (Homo sapiens, UniProt P53779); assay: Alpha Screen Kinase Assay, cell-free JNK3 activity; assay type: biochemical; details: cell-free AlphaScreen, FIG. 3B
# Procedure: FIG. 3: A) Cell-free assay of JNK1 activity in the presence of peptides according to the invention.
# To evaluate the specificity of the four peptides described above for JNK3, the Alpha Screen Kinase Assay was performed, following the experimental method described for the cell-free assays. Briefly, this AlphaScreen assay is used to measure the ability of the JNK kinase to phosphorylate its targets. The kinase reaction was performed under the following buffer conditions of the assay: 20 mM Tris / HCl (pH 7.4), 10 mM MgCl2, 1 mM DTT, 100 µM Na3VO4 and 0.01% Tween-20. Compounds (final concentration 5 µg / mL, 1% DMSO) or the control vehicle (final concentration 1% DMSO) were diluted in the assay buffer and mixed with JNK kinase (final concentration 5 nM). After an incubation time of 15 minutes at room temperature, biotinylated substrate, 6 nM final and ATP, 1 µM final diluted in assay buffer were added, followed by incubation of the dishes for 2 hours at room temperature. After this incubation period, the streptavidin donor and acceptor beads coated with anti-phosphosubstrate protein A antibody were added, with a final concentration of each component of 20 µg / mL, diluted in the following buffer: 20 mM Tris / HCl (pH 7.4), 200 mM NaCl, 80 mM ethylenediamine tetraacetic acid (EDTA) and 0.3% bovine serum albumin (BSA). After an overnight incubation, the dosage was measured using the AlphaQuest reader.
# The ATP-competitive and non-selective inhibitor SP600125 was used as a positive control for the different isoforms of JNK.
# mouse cortical neurons = assay: MTT toxicity assay on cortical neurons under control conditions; assay type: cell-based; details: 24 hours, 3 doses tested, FIG. 4A
# Procedure: FIG. 4: A) Toxicity at the indicated concentrations of SIMBA2 was evaluated by MTT assay and it is expressed in % survival. Data are expressed as mean ± SEM of 3 independent experiments (n = 6). ANOVA one-way, Dunnett post hoc test. B) Western blot of cortical neurons under control conditions and relative quantification showing that SIMBA2 (0.25-0.5 µM) prevents the phosphorylation of APP at the T668 position in a dose-dependent manner. Data are expressed as mean ± SEM of 3 independent experiments (n = 6). ANOVA one-way, Dunnett’s post-hoc test, ** p <0.01. C) Western blot and related quantification showing that SIMBA2 (0.25-0.5 µM) reduces P-c-Jun phosphorylation in neurons. Data are expressed as mean ± SEM of 3 independent experiments (n = 6). […]
# FIG. 10: A) Toxicity at the indicated concentrations of SIMBA2, evaluated by MTT assay and expressed as fold of change with respect to tcontrol. Data are expressed as mean ± SEM of 3 independent experiments (n = 6). […] B) Western blot of cortical neurons under control conditions in the absence (Ctr) or in the presence of SIMBA2 1 µM (1) and relative quantification showing that SIMBA2 (1 µM) at 24 h prevents the phosphorylation of P-c-Jun and reduces the phosphorylation of the APP at position T668 and C) the activity is maintained at 3 days and D) at 6 days after treatment. Data are expressed as mean ± SEM of 2 independent experiments (n = 5). […]
# [1] = Toxicity after single injection: body weight and side effects in mice; assay type: in vivo, mouse
# Procedure: FIG. 9: A) Measurement of body weight in mice before treatment. Data are expressed as mean body weight (g) ± SEM. B) Weight gain or loss was analyzed as the difference between the weight at the end and before the treatment. Data are expressed as mean ± SEM.
# Therefore, SIMBA2 at the highest dose was able to prevent synaptopathy in vivo.
# The toxicity of SIMBA2 after a single injection was evaluated. As an index of the general health of the animals, the change in the body weight of the mice was evaluated. […] 1 month after the I.P. injection, the body weight was measured again.
# Chain of JNK3 (P53779 whole entry, species assumed): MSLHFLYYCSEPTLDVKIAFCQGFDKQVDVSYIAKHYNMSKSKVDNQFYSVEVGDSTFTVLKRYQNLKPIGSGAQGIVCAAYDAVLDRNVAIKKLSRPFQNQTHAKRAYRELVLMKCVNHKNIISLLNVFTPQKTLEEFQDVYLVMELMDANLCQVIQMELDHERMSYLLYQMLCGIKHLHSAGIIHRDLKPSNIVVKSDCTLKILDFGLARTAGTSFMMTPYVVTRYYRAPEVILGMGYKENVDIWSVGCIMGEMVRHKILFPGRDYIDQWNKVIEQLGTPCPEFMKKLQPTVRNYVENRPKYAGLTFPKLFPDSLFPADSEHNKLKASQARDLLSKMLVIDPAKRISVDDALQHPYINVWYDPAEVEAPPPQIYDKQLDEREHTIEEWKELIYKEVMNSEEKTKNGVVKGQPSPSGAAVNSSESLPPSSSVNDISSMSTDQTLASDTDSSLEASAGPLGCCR
substance,measurement,setting,value
SIMBA2 long A: peptide SDRSLHLEANEKGENVNVHVTKTNEKGEKIKVSVRQYADINEKGEAQYKCPVAQLE (Designed peptide based on size and structure to act in the interaction among beta-arrestin-2 and JNK3),inhibition of JNK3 activity on p-c-Jun,JNK3,inhibit the activity of JNK3 on p-c-Jun in a concentration-dependent manner
SIMBA2 short B: peptide SDRSLHLEAEKGNVNVHVTKTADKKIKVSVRQYADIEKGAQYKCPVAQLE (Designed peptide based on size and structure to act in the interaction among beta-arrestin-2 and JNK3),inhibition of JNK3 activity on p-c-Jun,JNK3,inhibit the activity of JNK3 on p-c-Jun in a concentration-dependent manner
SIMBA2 short A: peptide SDRSLHLEAEKGNVNVHVTKTEKGKIKVSVRQYADIEKGAQYKCPVAQLE (Designed peptide based on size and structure to act in the interaction among beta-arrestin-2 and JNK3),inhibition of JNK3 activity on p-c-Jun,JNK3,inhibit the activity of JNK3 on p-c-Jun in a concentration-dependent manner
SDRSLHLEANEKGENVNVHVTKTRADKSKIKVSVRQYADINEKGEAQYKCPVAQLE [SIMBA2],"toxicity (MTT, % survival)",mouse cortical neurons,no toxicity
same,change in body weight,"[1]; 1 month after single I.P. injection, FIG. 9B",did not show changes in body weight
same,side effects in vivo,"[1]; TgCRND8 mice, 22 mg/kg",did not lead to the onset of any noticeable side effects
